Reference: patent publication US20090155236A1, “Peptide sequence for modulation of delta protein kinase c” (NATIONAL INSTITUES OF HEALTH (NIH), U.S. DEPT OF HEALTH AND …, priority 2004, published 2009)

Legend:
[1] = molecular target: recombinant full-length delta PKC (rat); test: ELISA, absence of calcium
[2] = molecular target: recombinant full-length delta PKC (rat); test: ELISA, presence of calcium
[3] = molecular target: annexin V protein (human) (UniProt P08758); test: ELISA, annexin V immobilised, absence of calcium
[4] = molecular target: annexin V protein (human) (UniProt P08758); test: ELISA, annexin V immobilised, presence of calcium

annexin V protein (human), sequence (P08758 2-320 limits assumed): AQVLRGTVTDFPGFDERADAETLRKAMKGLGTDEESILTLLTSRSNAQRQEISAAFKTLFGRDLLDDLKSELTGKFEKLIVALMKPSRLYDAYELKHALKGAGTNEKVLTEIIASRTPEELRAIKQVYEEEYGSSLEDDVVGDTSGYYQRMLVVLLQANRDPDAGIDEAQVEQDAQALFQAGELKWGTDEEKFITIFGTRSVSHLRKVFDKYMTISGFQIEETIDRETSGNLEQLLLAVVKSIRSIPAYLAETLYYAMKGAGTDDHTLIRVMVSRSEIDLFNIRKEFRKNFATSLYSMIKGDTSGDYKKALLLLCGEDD

Row | Substance | percent binding [1] [%] | percent binding [2] [%] | percent binding [3] [%] | percent binding [4] [%]
1 | annexin V protein (from UniProt P08758 2-320) | 75 | 100 | – | –
2 | delta V1 PKC (from UniProt P09215 1-160) | – | – | 55 | 100
